This passage reports binding (% cells labeled) results from US20230038866.

Read-outs that look alike come from different tables or passages of the source.

Data set [1] addresses membrane-bound immunoglobulin heavy mu chain (B-cell receptor, IgM) on Ramos lymphoma cells (Homo sapiens) (UniProt P01871). The following applies: confocal staining of Ramos xenograft brain slices, 1.0 uM, 10 min on ice, 6 mM MgCl2, 1.2 mM CaCl2, PBS, yeast tRNA; U251 glioma 0.81% and normal brain 0.80% ….
The target is the same in data set [2]. To be noted: confocal staining of Ramos xenograft brain slices, 1.0 uM, 10 min; target not purified.

Sequence of UniProt P01871 (P01871 1-450): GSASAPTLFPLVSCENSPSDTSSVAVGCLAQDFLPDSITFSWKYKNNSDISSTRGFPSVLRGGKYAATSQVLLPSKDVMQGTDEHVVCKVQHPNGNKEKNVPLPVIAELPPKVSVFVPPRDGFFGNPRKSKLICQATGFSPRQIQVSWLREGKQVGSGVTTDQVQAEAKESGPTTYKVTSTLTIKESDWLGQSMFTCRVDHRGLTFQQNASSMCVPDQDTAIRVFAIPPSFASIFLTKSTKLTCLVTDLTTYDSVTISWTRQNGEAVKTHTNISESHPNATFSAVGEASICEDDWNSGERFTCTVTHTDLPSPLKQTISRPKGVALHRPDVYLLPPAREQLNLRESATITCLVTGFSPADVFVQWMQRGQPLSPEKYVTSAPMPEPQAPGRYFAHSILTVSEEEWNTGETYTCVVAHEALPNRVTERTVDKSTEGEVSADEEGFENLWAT

In data set [1], “AGGAGGATAGTTCGGTGGCTGTTCAGGGTCTCCTCCT [TD05-488]” showed a binding (% cells labeled) of 76.7.
Take nonspecific Alexa Fluor 488 aptamer: the binding (% cells labeled) in data set [2] came to 2.71.
